Test results taken from publication PMC8038949, “Structural basis for the DNA-binding activity of human ARID4B Tudor domain”.

Target: T1, ARID4B TD121 E50L (Homo sapiens, UniProt Q4LE39 1-121, E50L)
T1 sequence: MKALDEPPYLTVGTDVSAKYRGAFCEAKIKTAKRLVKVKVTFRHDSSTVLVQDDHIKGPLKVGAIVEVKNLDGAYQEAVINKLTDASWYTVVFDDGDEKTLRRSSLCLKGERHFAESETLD
Assay: EMSA; stronger than wild-type ARID4B TD121; 50 mM Tris-HCl pH 7.6, 50 mM NaCl (buffer A); ITC 25 C; EMSA 4 C, 12 uM DNA, 8% native gel in TBE; NMR titration by 1H-15N HSQC (temperature not stated for titration; buffer A also defined elsewhere as 20 mM phosphate, 100 mM NaCl, pH 7.0)
Conditions: protein: recombinant; 5' overhang 1 nt on each strand (17 bp paired)

B1: dsDNA1 (dsDNA)
DNA 1: CTCAGGTCAAAGGTCACG
DNA 2: TCGTGACCTTTGACCTGA
  binding result: binds
